In the supplement of paper PMC12042874:
± gives the uncertainty stated by the source.

test: amyloid nucleation score (Sup35N fusion, yeast selection) (log enrichment); library NNK2; higher = more nucleation; inactive = no reads after selection
Procedure, shortened: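 Sup35N fusions to peptides of 20 random codons were expressed in psi-negative yeast, induced 24 hours with 100 μM copper sulfate, and grown 7 days at 30°C on medium lacking adenine and uracil. Input and output plasmid inserts were sequenced by Illumina. The nucleation score is the DiMSum log enrichment of output over input reads, centred on the mode score of non-aggregating sequences. Sequences with under 100 input reads were excluded.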

Row | Substance | amyloid nucleation score
1 | VVDGLRATAH | 0.366 ± 0.38
2 | WSTFSTFTGYSA | -0.335 ± 0.5
3 | SKYMRFGDTFLFARMHGKGD | 4.49 ± 0.048
4 | LAQRSNFRASCWINFLGWLD | inactive
5 | RAHVYSSKDP | 5.92 ± 0.059
6 | PARAKRLTAL | -0.207 ± 0.29
7 | EHVGVTTVPIPLGMGLTWWC | 0.309 ± 0.16
8 | GDDDVVVDDQNLKCDGYTDL | 1.03 ± 0.24
9 | RDALCVHWVAYIGNKHGWVA | 0.965 ± 0.17
10 | ACSQLSYWTFHSPWP | 4.07 ± 0.072
11 | RLTDSSTGDFKNL | -1.45 ± 0.61
12 | MWRFRPLRSDTLRYDGSMGC | -0.021 ± 0.76
13 | LVTECNRDGTLDG | -0.582 ± 0.49
14 | CFFTCC | 9.912 ± 0.045
15 | EDITI | -1.67 ± 0.41
16 | KSLDYFSECRDSPNML | -0.757 ± 0.48
17 | DQESRNSVFSGKGGRRDVSS | -0.134 ± 0.37
18 | VGCPEMGLVSLGSLLRLGSA | 0.968 ± 0.39
19 | LYYAVQFLKIRTLLPECSLQ | 0.16 ± 0.43
20 | SSMQPHLVSSVL | 3.7 ± 0.07
21 | YVSWRTNGLMSTCDFLTRQT | 0.719 ± 0.23
22 | ILIIRLKFLVIVAITSTGSD | inactive

Row | Substance | amyloid nucleation score
23 | TGQSHFSWQYLRTAAVYSRR | 0.569 ± 0.27
24 | WGICSTEVSVIEWDWNGYQF | -1.14 ± 1.1
25 | DGDNNCMCS | 0.404 ± 0.48
26 | ESGVWCKAPFYMSVTLSIHS | -0.487 ± 0.56
27 | LLVVCSNLQNKVCRRNPEVF | -1.79 ± 0.49
28 | DGHVELCISAKDYD | -0.249 ± 0.53
29 | FYTTRMYLVFSYFV | 3.29 ± 0.064
30 | TLGTIPIWTEIRPEYNSPLM | 0.371 ± 0.51
31 | ARTKVIY | -1.34 ± 0.75
32 | LGDAHALCGRLTVCRGGTGP | 3.58 ± 0.075
33 | QHAFRVHFTVRRVSSFFVR | 5.96 ± 0.086
34 | HRASRMCGINLARPTVMVVT | 1.9 ± 0.12
35 | AWMRDLCSVYRCVGCDLLWA | 6.25 ± 0.081
36 | SGAQA | -0.966 ± 0.78
37 | DIWYLICLSQSSGLFLVGVM | -0.55 ± 0.79
38 | GTAYAHFFEVNFTSKLLAEF | 1.76 ± 0.18
39 | RELKCQCLERVLLRVRQCAM | 6.821 ± 0.056
40 | VEHEFVQILT | -0.733 ± 0.36
41 | MGFSRTLYIRKDIFLFVLHL | -0.759 ± 0.64
42 | ELGFGMMIAPSKGEKGDGML | 3.37 ± 0.12
43 | AIVGEMMALFYDNLSRGGVH | -0.505 ± 0.47
44 | VVTIIRSSVWVSTLCFGFFV | 4.01 ± 0.068

Row | Substance | amyloid nucleation score
45 | FISTGRHTICDIVAHNADLF | -0.305 ± 0.8
46 | IYHYPKRREGVIK | 0.224 ± 0.56
47 | DVHNMGSPGVLAMLVTSDGK | 0.876 ± 0.74
48 | DWFGLCFMKRFKFGEYKACM | -1.04 ± 0.48
49 | WGAVMACE | 0.756 ± 0.49
50 | FSRTTAHMTLDMYFTGRDGY | 5.79 ± 0.058
51 | FKFYGFFD | inactive
52 | ILNCVMYLICKYVFII | 2.16 ± 0.14
53 | LRSACCLIRSLNTAVCGWTK | 4.22 ± 0.048
54 | GLVGEGRACYVKHD | 0.861 ± 0.57
55 | PDSGVSDESHLRCLPGVPRI | 0.066 ± 0.28
56 | GMKSFR | -1.68 ± 1.1
57 | VGELVMLFSKYSSVNVRGFA | 3.04 ± 0.075
58 | INLYRSVGPKKWYTGEVLMA | -0.137 ± 1.1
59 | LSYTSDSRPAGF | -0.347 ± 1.1
60 | CNCQMGDVLEGLGDVGLNNF | -1.65 ± 0.62
61 | SDCFMGANDVMNKLEYGLDA | 0.091 ± 0.22
62 | FNGCFSCTMG | 8.109 ± 0.055
63 | QVLFVRFRRYVYQRMWACWG | 0.405 ± 0.74
64 | PIARN | -0.47 ± 1
65 | PLLRSKKKSALYPA | -0.021 ± 0.63
66 | SLGTFVRHTEWSSKNEAFPV | inactive

Row | Substance | amyloid nucleation score
67 | TFGTQELELTD | inactive
68 | GSHLSSSFTKWMGIPAMVFR | -0.134 ± 0.54
69 | YLYSAQNIRGRWLFCSMKCD | -1.03 ± 0.62
70 | SIGLLTGKWLPSLMVLYLLV | 1.29 ± 0.44
71 | CSCHKSSCLRTTFCLEHSSG | 6.866 ± 0.062
72 | YYTPRWCFAYVSRLVWFLLP | inactive
73 | HYRSFVDFITGWLVSFATEP | 4.28 ± 0.054
74 | TVRMIMLANLIQSYWHTIVS | -0.153 ± 0.65
75 | VVTFTDYI | 0.237 ± 1
76 | STWPIGPSCSLIVCREDCET | 1.45 ± 0.34
77 | CVWHVF | inactive
78 | YLIKMTCVGIMFSV | 6.592 ± 0.04
79 | YFMLPLYMMLLGYFYKTICS | 6.933 ± 0.067
80 | YSHAGEASWDYVSLWFSSRK | 0.49 ± 0.46
81 | YSYKFAAVSMIWVYPCEHTS | 1.71 ± 0.18
82 | AFIYYFNLTSAHYFPMRQMF | inactive
83 | TFRPFQVTSHVSLRDMMGIS | 0.132 ± 0.3
84 | LAPPKKAFISVKMSLDRYCV | -0.305 ± 0.26
85 | ALIRFCTSW | 0.588 ± 0.16
86 | RLGIVSSVLVYWLYNYYSVL | inactive
